Source: US20150024066A1, “METHODS FOR […] TREATING EXCESS WEIGHT USING OXYNTOMODULIN” (IMPERIAL INNOVATIONS, published 2015)

Columns and labels:
GLP-1 receptor [1] = molecular target: T1, GLP-1 receptor (rat, UniProt P32301); experiment: competition of [^125I]GLP-1 binding to rat hypothalamic membranes; reference GLP-1
GLP-1 receptor [2] = molecular target: T1, GLP-1 receptor; experiment: competition of [^125I]GLP-1 binding to rat hypothalamic membranes, unlabeled peptide varied
Procedure: Membranes were incubated at room temperature for 90 min. Bound and free radioactivity were separated by centrifugation (2 min, 4° C.). Pelleted membranes were washed with assay buffer (0.5 ml, ice-cold), and the membranes were centrifuged as described above. The supernatant was removed, and the radioactivity in the pellet was counted using a γ-counter. […] All curves were constructed with points in triplicate. IC₅₀ values were calculated using the Prism 3 program (GraphPad Software, Inc., San Diego, Calif.).

affinity relative to GLP-1 (GLP-1 receptor [1]): ~2 orders of magnitude weaker | IC50 (GLP-1 receptor [2]): 8.2 nM
B1: oxyntomodulin (OXM) (peptide)
peptide: HSQGTFTSDYSKYLDSRRAQDFVQWLMNTKRNKNNIA
